Our source for the % inhibition (median) values is patent publication US20180231567A1.

The target in experiment [1] is serum IgE of the 10 allergic adults sensitized to peanut extract used for the inhibition experiments (Example 3) (human). Put plainly: ELISA cross-inhibition; Ara h 6 immobilized, sera pre-incubated with competing allergen at 0.1, 1 and 10 ug/ml.
Experiment [2] has the same target. In words: ELISA cross-inhibition; Ara h 7.0201 immobilized, sera pre-incubated with competing allergen at 0.1, 1 and 10 ug/ml. In general terms: An ELISA detects its analyte on a solid surface through an enzyme-linked reagent.

B1: Ara h 2 isotype 2.0201, as expressed in example 1 (His fusion protein) (protein)
chain: MSHHHHHHIEGRTMRQQWELQGDRRCQSQLERANLRPCEQHLMQKIQRDEDSYGRDPYSPSQDPYSPSQDPDRRDPYSPSPYDRRGAGSSQHQERCCNELNEFENNQRCMCEALQQIMENQSDRLQGRQQEQQFKRELRNLPQQCGLRAPQRCDLEVESGGRDRY
For B1, the results for the % inhibition (median) in experiment [1] and in experiment [2] were 43% and 16%, respectively.
